Residue numbers refer to the chain shown, from its start. Names and notes keep the numbering of the source.
B1: hzG2D-27: humanized G2D clone; "G2D VL region ... of clones 1-16, 19-21, 26-29, 31, and 33 ... grafted into the human germline sequence VKI-L1 with JK4" (antibody, V domains shown)
VH: QVQLVQSGAEVKKPGASVKVSCKASGYTFTGYYMHWVRQAPGQRLEWMGRINPNNGATNYNQNFKDKASLTVDTSASTAYMELSSLRSEDTAVYYCTSVNFYYWGQGTTVTVSS
VL: DIQMTQSPSSLSASVGDRVTITCKASQVINSYLSWFQQKPGKAPKSLIYRANTLVDGVPSRFSGSGSGTDFTLTISSLEYEDFATYYCLQYAEFPYTFGGGTKVEIK
modifications: Synthetic sequence hzG2.47D VH R66K, V67A, T68S, I69L, R71V, A93T, R94S; Synthetic sequence hzG2.4D VLa Q79E, P80Y
B2: hzG2D-32: humanized G2D clone; "G2D VL region ... of clones 22, 23, 30, 32, and 34-37 ... grafted into the human germline sequence VKI-O2 with JK4" (antibody, V domains shown)
VH: B1 VH with L83F, S84H
VL: B1 VL with F36Y, S46L, E79Q, Y80P
modifications: Synthetic sequence hzG2.50D VH R66K, V67A, T68S, I69L, R71V, L82F, S82aH, A93T, R94S; Synthetic sequence hzG2D VLb
B3: hzG2D-29: humanized G2D clone; "G2D VL region ... of clones 1-16, 19-21, 26-29, 31, and 33 ... grafted into the human germline sequence VKI-L1 with JK4" (antibody, V domains shown)
VH: B1 VH with R38K
VL: B1 VL with E79Q, Y80P
modifications: Synthetic sequence hzG2.49D VH R38K, R66K, V67A, T68S, I69L, R71V, A93T, R94S; Synthetic sequence hzG2D VLa
B4: hzG2D-31: humanized G2D clone; "G2D VL region ... of clones 1-16, 19-21, 26-29, 31, and 33 ... grafted into the human germline sequence VKI-L1 with JK4" (antibody, V domains shown)
VH: B1 VH with L83F, S84H
VL: B1 VL with E79Q, Y80P
modifications: Synthetic sequence hzG2.50D VH R66K, V67A, T68S, I69L, R71V, L82F, S82aH, A93T, R94S; Synthetic sequence hzG2D VLa
B5: hzG2D-30: humanized G2D clone; "G2D VL region ... of clones 22, 23, 30, 32, and 34-37 ... grafted into the human germline sequence VKI-O2 with JK4" (antibody, V domains shown)
VH: B1 VH with R38K
VL: B1 VL with F36Y, S46L, E79Q, Y80P
modifications: Synthetic sequence hzG2.49D VH R38K, R66K, V67A, T68S, I69L, R71V, A93T, R94S; Synthetic sequence hzG2D VLb
B6: hzG2D-1: humanized G2D clone; "G2D VL region ... of clones 1-16, 19-21, 26-29, 31, and 33 ... grafted into the human germline sequence VKI-L1 with JK4" (antibody, V domains shown)
VH: B1 VH with K67R, A68V, S69T, L70I, V72R, T97A, S98R, V110L
VL: B1 VL with E79Q, Y80P
modifications: Synthetic sequence hzG2D VH V109L; Synthetic sequence hzG2D VLa
B7: hzG2D-28: humanized G2D clone; "G2D VL region ... of clones 1-16, 19-21, 26-29, 31, and 33 ... grafted into the human germline sequence VKI-L1 with JK4" (antibody, V domains shown)
VH: B1 VH
VL: B1 VL with F71Y, T72S, E79Q, Y80P
modifications: Synthetic sequence hzG2.47D VH R66K, V67A, T68S, I69L, R71V, A93T, R94S; Synthetic sequence hzG2.5D VLa F71Y, T72S
B8: G2D-C (antibody, V domains shown)
VH: EVQLQQSGPELVKPGASVKISCKASGYSFTGYYMHWVKQSHVKSLEWIGRINPNNGATNYNQNFKDKASLTVDKSSSTAYMEFHSLTSEDSAVYYCTSVNFYYWGQGTTLTVSS
VL: DIKMTQSPSSMYASLGERVTITCKASQVINSYLSWFQQKPGKSPETLIYRANTLVDGVPSRFSGSGSGQDYSLTISSLEYEDLGIYYCLQYAEFPYTFGGGTKLEIK
modifications: IgG1 kappa constant regions; Synthetic sequence G2D VH; Synthetic sequence G2D VL

Target: T1, HepG2 cells (which express ASGR1) (Homo sapiens, UniProt P07306)
T1 construct: endogenous in cells; host or cells: HepG2
T1 sequence (P07306 1-291): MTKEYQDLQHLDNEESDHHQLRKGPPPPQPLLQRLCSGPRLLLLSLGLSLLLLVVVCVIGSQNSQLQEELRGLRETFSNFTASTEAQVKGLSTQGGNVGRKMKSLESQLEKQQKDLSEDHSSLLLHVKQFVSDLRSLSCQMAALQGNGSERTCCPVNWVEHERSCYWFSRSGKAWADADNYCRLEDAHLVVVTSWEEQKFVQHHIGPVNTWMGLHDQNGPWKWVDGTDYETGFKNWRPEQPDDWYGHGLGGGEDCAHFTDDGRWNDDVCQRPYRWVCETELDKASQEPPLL
Experiment: Guava HepG2 cell binding screen of humanized anti-ASGR1 clones
Parameters: unit not given here
Conditions: humanized G2D clones (Table 5); two numbers per cell, not explained
Protocol: Hybridomas producing monoclonal antibodies (mAbs) specific for human ASGR1 were prepared from Balb/C mice immunized with ASGR1-AviHis at a service provider using their propriety protocol. Antibody heavy and light chain sequences were obtained, amplified, and cloned. Clone supernatants containing the expressed mAbs were screened for binding to a human ASGR1-IgG1Fc fusion protein, and those with a positive signal as measured by enzyme linked immunosorbent assay (ELISA) were screened for cell binding on HepG2 cells (which express ASGR1).

Guava HepG2 Screen	Molecule
191/116	B1
167/103	B2
189/108	B3
168/95	B4
198/115	B5
32/19	B6
145/92	B7
187/145	B8
